Assay in all cases: cell_activity
Data set [1] deals with T1, TcBuster V377T/E469K V377T,E469K (Tribolium castaneum).
T1 sequence: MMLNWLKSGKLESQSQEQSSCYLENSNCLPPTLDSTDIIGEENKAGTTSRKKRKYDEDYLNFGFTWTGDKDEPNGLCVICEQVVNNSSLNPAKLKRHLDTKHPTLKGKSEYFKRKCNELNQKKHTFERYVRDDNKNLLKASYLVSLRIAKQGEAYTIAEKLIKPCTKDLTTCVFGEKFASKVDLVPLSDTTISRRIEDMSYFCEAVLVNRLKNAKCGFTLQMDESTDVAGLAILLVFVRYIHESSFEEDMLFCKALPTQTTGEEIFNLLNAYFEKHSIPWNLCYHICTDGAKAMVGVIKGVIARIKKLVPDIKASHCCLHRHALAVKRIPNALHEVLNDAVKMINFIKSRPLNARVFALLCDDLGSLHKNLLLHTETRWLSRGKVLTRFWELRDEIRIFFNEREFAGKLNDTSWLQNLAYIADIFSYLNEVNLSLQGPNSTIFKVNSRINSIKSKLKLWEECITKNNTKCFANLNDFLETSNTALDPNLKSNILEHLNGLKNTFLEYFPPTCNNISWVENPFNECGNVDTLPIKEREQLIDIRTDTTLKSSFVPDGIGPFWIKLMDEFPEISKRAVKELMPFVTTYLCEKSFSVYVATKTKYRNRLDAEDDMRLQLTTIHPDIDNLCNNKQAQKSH
Particulars: primary human CD3+ T cells, mean; nearly 2-fold over WT at day 14; unit inferred from figure legend.

For data set [2], the system named is T2, TcBuster D189A/V377T/E469K (Tribolium castaneum).
T2 sequence: T1 sequence with D189A
The following applies: primary human CD3+ T cells, mean; nearly 2-fold over WT at day 14; unit inferred from figure legend.

The subject of data set [3] is Sleeping Beauty transposase SB11 (synthetic). The following applies: primary human CD3+ T cells, mean; unit inferred from figure legend.

Numbering of substitutions follows the chain as printed.

With “mini-circle transposon with TcBuster and Sleeping Beauty IR/DRs, GFP cargo”, the activity in data set [1] was 20.2 % GFP+ cells; in data set [2] it was 24.1 % GFP+ cells; in data set [3], 8.4 % GFP+ cells.

For the origin of these results see patent US20200323902.
